To fix the notation:
B1: SKA0009H-F760mnN17/SKA0009Ls-k0MT//TR01H113-F760mnP17/L0011-k0a (bispecific antibody, human IgG1, kappa, N297A)
heavy 1: QSVEESGGRLVTPGTSLTLTCTVSGIDLSSYGMGWVRQAPGMGLEYIGIIYAAGRTYYASWVKGRFIISKTSTTVDLEMTSLTTEDTATYFCARHGSWYAGMDLWGPGTLVTVSSASTKGPSVFPLAPSSKSTSGGTAALGCLVKDYFPEPVTVSWNSGALTSGVHTFPAVLQSSGLYSLSSVVTVPSSSLGTQTYICNVNHKPSNTKVDKKVEPKSCDKTHTCPPCPAPELRGGPKVFLFPPKPKDTLMISRTPEVTCVVVDVSHEDPEVKFNWYVDGVEVHNAKTKPREEQYASTYRVVSVLTVLHQDWLNGKEYKCKVSNKALPAPIEKTISKAKGQPREPQVYTLPPSREEMTKNQVSLTCLVKGFYPSDIAVEWESNGQPENNYKTTPPYLDSDGSFFLYSKLTVDKSRWQQGNVFSCSVMHEALHNHYTQESLSLSP
light 1: AIEMTQTPSPVSAAVGGTVSINCQASEDIENYFAWYQQKPGQPPKLLIYDASELASGVPSRFSGSGSGTDFTLTISGVQSDDAATYYCQHADYAASSENTFGGGTEVVVKRTVAAPSVFIFPPSDEQLKSGTASVVCLLNNFYPREAKVQWKVDNALQSGNSQESVTEQDSKDSTYSLSSTLTLSKADYEKHKVYACEVTHQGLSSPVTKSFNRGEC
heavy 2: QVQLVESGGGVVQPGGSLRLSCAASGFTFSNAWMHWVRQAPGKGLEWVAQIKDKSQNYATYVAESVKGRFTISRADSKNSIYLQMNSLKTEDTAVYYCRYVHYAAGYGVDIWGQGTTVTVSSASTKGPSVFPLAPSSKSTSGGTAALGCLVKDYFPEPVTVSWNSGALTSGVHTFPAVLQSSGLYSLSSVVTVPSSSLGTQTYICNVNHKPSNTKVDKKVEPKSCDKTHTCPPCPAPELRGGPKVFLFPPKPKDTLMISRTPEVTCVVVDVSHEDPEVKFNWYVDGVEVHNAKTKPREEQYASTYRVVSVLTVLHQDWLNGKEYKCKVSNKALPAPIEKTISKAKGQPREPQVYTLPPSRKEMTKNQVSLTCLVKGFYPSDIAVEWESNGQPENNYKTTPPYLDSDGSFFLYSKLTVDKSRWQQGNVFSCSVMHEALHNHYTQKSLSLSP
light 2: DIVMTQSPLSLPVTPGEPASISCRSSQPLVHSNRNTYLHWYQQKPGQAPRLLIYKVSNRFSGVPDRFSGSGSGTDFTLKISRVEAEDVGVYYCGQGTQVPYTFGQGTKLEIKRTVAAPSVFIFPPSDEQLKSGTASVVCLLNNFYPREAKVQWKVDNALQSGNSQESVTEQDSKDSTYSLSSTLTLSKADYEKHKVYACEVTHQGLSSPVTKSFNRGEC
notes: Bispecific IgG made by mixing two homomers under 2-MEA reduction; also called anti-silent Fc antibody; silent Fc×CD3
B2: H0000-SG115/GL4-k0a (antibody)
heavy: QVQLVQSGAEVKKPGASVKVSCKASGYTFTDYEMHWIRQPPGQGLEWIGAIDPKTGDTAYSQKFKGRVTLTADKSTSTAYMELSSLTSEDTAVYYCTRFYSYTYWGQGTLVTVSSASTKGPSVFPLAPSSKSTSGGTAALGCLVKDYFPEPVTVSWNSGALTSGVHTFPAVLQSSGLYSLSSVVTVPSSSLGTQTYICNVNHKPSNTKVDKKVEPKSCDKTHTCPPCPAPELRRGPKVFLFPPKPKDTLMISRTPEVTCVVVDVSHEDPEVKFNWYVDGVEVHNAKTKPREEQYNSTYRVVSVLTVLHQDWLNGKEYKCKVSNKGLPSSIEKTISKAKGQPREPQVYTLPPSREEMTKNQVSLTCLVKGFYPSDIAVEWESNGQPENNYKTTPPVLDSDGSFFLYSKLTVDKSRWQQGNVFSCSVLHEALHAHYTRKELSLSP
light: B1 light 2 with P28S, G94S, G96N, Q98H, Y101P
notes: Anti-GPC3 antibody with the SG115 constant region, which is both silent Fc and delta GK-Fc; also called anti-GPC3 silent Fc antibody; anti-GPC3 silent Fc and anti-delta GK-Fc antibody
B3: H0000-G1T3GK/GL4-k0a (antibody, human IgG1, kappa)
heavy: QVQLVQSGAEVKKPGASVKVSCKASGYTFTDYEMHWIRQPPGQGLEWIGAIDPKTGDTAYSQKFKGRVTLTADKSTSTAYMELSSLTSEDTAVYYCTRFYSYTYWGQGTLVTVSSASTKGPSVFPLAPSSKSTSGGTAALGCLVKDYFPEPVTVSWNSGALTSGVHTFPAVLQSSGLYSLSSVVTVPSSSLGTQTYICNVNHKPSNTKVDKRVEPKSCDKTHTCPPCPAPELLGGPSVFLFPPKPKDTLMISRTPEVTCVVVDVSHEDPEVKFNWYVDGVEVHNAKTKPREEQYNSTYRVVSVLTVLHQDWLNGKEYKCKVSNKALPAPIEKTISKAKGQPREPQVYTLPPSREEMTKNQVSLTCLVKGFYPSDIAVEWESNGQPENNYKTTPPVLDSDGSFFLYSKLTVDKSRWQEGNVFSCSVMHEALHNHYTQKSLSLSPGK
light: B1 light 2 with P28S, G94S, G96N, Q98H, Y101P
notes: Control antigen antibody with the same variable regions as m1 and a human IgG1 constant region carrying C-terminal GK; also called anti-GPC3 antibody with C-terminal addition of Gly-Lys; anti-GPC3 antibody having IgG1 constant region having C-terminal GK
B4: YG55H-F760mnN17GK/YG55L-k0//TR01H113-F760mnP17GK/L0011-k0a (bispecific antibody, human IgG1, kappa, N297A)
heavy 1: QSLEESGGRLVTPGGSLTLTCTVSGIDLSNYAVGWVRQAPGKGLEYIGIIYASGSAYYASWAKGRFTISKTSSTTVDLKVTSLTTEDTATYFCARGYGRAFRIWGPGTLVTVSSASTKGPSVFPLAPSSKSTSGGTAALGCLVKDYFPEPVTVSWNSGALTSGVHTFPAVLQSSGLYSLSSVVTVPSSSLGTQTYICNVNHKPSNTKVDKKVEPKSCDKTHTCPPCPAPELRGGPKVFLFPPKPKDTLMISRTPEVTCVVVDVSHEDPEVKFNWYVDGVEVHNAKTKPREEQYASTYRVVSVLTVLHQDWLNGKEYKCKVSNKALPAPIEKTISKAKGQPREPQVYTLPPSREEMTKNQVSLTCLVKGFYPSDIAVEWESNGQPENNYKTTPPYLDSDGSFFLYSKLTVDKSRWQQGNVFSCSVMHEALHNHYTQESLSLSPGK
light 1: AVLTQTPSPVSAAVGGTVTISCQASQSVYNNNFLSWYQQKPGQRPKLLIYDASTLESGVPSRFSGSGSGTQFTLTISSVQCDDAATYYCLGGYDDHDNAFGGGTEVVVKRTVAAPSVFIFPPSDEQLKSGTASVVCLLNNFYPREAKVQWKVDNALQSGNSQESVTEQDSKDSTYSLSSTLTLSKADYEKHKVYACEVTHQGLSSPVTKSFNRGEC
heavy 2: QVQLVESGGGVVQPGGSLRLSCAASGFTFSNAWMHWVRQAPGKGLEWVAQIKDKSQNYATYVAESVKGRFTISRADSKNSIYLQMNSLKTEDTAVYYCRYVHYAAGYGVDIWGQGTTVTVSSASTKGPSVFPLAPSSKSTSGGTAALGCLVKDYFPEPVTVSWNSGALTSGVHTFPAVLQSSGLYSLSSVVTVPSSSLGTQTYICNVNHKPSNTKVDKKVEPKSCDKTHTCPPCPAPELRGGPKVFLFPPKPKDTLMISRTPEVTCVVVDVSHEDPEVKFNWYVDGVEVHNAKTKPREEQYASTYRVVSVLTVLHQDWLNGKEYKCKVSNKALPAPIEKTISKAKGQPREPQVYTLPPSRKEMTKNQVSLTCLVKGFYPSDIAVEWESNGQPENNYKTTPPYLDSDGSFFLYSKLTVDKSRWQQGNVFSCSVMHEALHNHYTQKSLSLSPGK
light 2: B1 light 2
notes: Bispecific IgG made by mixing two homomers under 2-MEA reduction; also called anti-delta GK-Fc antibody; delta GK-Fc×CD3

In experiment [1] the target is B2. As to the kind of experiment: SPR (Biacore T200), multi-cycle kinetics; anti-GPC3 antibody captured on engineered GPC3 CM4 chip, bispecific antibody as analyte at 15.6-1000 nM. (In general: In SPR one partner is held on a chip, and binding of the other changes the refractive index at the surface.)
Experiment [2] addresses B3. The description is as above.
Experiment [3] addresses engineered GPC3 (Homo sapiens (Human), UniProt P51654 25-563). Briefly: SPR (Biacore T200); capture of the antibody on an engineered GPC3 CM4 chip.

Where a chain is given by its changes, count along the chain named. Where only a bound is given, the exact number is not on record here.

engineered GPC3, sequence (P51654 other isoform, or with tags, fused parts or gaps limits assumed): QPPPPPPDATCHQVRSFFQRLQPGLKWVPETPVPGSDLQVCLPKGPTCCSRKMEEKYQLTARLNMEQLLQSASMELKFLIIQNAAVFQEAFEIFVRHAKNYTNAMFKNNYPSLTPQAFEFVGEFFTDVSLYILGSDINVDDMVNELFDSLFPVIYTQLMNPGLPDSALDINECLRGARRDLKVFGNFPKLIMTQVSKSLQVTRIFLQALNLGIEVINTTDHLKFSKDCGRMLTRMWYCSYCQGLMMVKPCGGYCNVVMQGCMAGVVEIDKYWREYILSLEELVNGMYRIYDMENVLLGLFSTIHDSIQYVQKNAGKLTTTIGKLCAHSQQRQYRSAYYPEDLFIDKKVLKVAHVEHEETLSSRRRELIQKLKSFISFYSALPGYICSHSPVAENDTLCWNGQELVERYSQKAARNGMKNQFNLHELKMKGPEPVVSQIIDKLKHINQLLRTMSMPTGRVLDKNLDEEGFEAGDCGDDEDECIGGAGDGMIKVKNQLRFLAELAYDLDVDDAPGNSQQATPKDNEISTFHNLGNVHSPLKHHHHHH

Turning to B1, in experiment [1], the Kd is < 0.26 nM, the koff is < 1e-05 s⁻¹ and the kon was determined as 38900 M⁻¹ s⁻¹. Moreover, the kon in experiment [2] is 2610 M⁻¹ s⁻¹.
For the molecule B2, the binding result in experiment [3] is given as “binds”.
On the same count and under the same terms, the same measure for B3: “binds”.
As to B4, in experiment [1], the affinity, expressed as Kd, was 41.7 nM; the off-rate constant (koff) is 0.00348 s⁻¹; the kon was 83500 M⁻¹ s⁻¹.

A word on the Kd: it is a measure of binding affinity in units of concentration. Low values mean higher affinity, high ones lower affinity. The term koff denotes the first-order rate constant of dissociation. A high value points to fast dissociation. The kon is the second-order rate constant of association. Higher therefore signals fast association.

The values are drawn from patent US20220143094A1 (Chugai, published 2022).
